This series concerns the molecule itself. Briefly: native gel or EMSA; ATP-bound tmaDnaA on a 30 bp DNA (300 nM) with the oppositely oriented tmaDnaA boxes 2 and 3; complexes with one (C1) or two (C2) tmaDnaA molecules; 8% polyacrylamide gel, GelStar staining; self-interaction read from the preference for C2 on DNA.

B1: Thermotoga maritima DnaA initiator (tmaDnaA), wildtype (natural protein, UniProt P46798 1-440, looked up)
chain: MKERILQEIKTRVNRKSWELWFSSFDVKSIEGNKVVFSVGNLFIKEWLEKKYYSVLSKAVKVVLGNDATFEITYEAFEPHSSYSEPLVKKRAVLLTPLNPDYTFENFVVGPGNSFAYHAALEVAKHPGRYNPLFIYGGVGLGKTHLLQSIGNYVVQNEPDLRVMYITSEKFLNDLVDSMKEGKLNEFREKYRKKVDILLIDDVQFLIGKTGVQTELFHTFNELHDSGKQIVICSDREPQKLSEFQDRLVSRFQMGLVAKLEPPDEETRKSIARKMLEIEHGELPEEVLNFVAENVDDNLRRLRGAIIKLLVYKETTGKEVDLKEAILLLKDFIKPNRVKAMDPIDELIEIVAKVTGVPREEILSNSRNVKALTARRIGMYVAKNYLKSSLRTIAEKFNRSHPVVVDSVKKVKDSLLKGNKQLKALIDEVIGEISRRALSG
notes: DnaA chromosomal replication initiator protein of Thermotoga maritima (tmaDnaA); also called WT tmaDnaA; ATP-tmaDnaA; source: purified as described previously (40); plasmid pTHMA-1
On to B1, for which the binding result is given as “binds”.

Values taken from article PMC10316083, “Thermotoga maritima oriC involves a DNA unwinding element with distinct modules and a DnaA-oligomerizing region with a novel directional binding mode” (The Journal of Biological Chemistry, 2023).
